Data on four molecules can be found in patent US20250145710A1 (INTEGRAL MOLECULAR, published 2025).

Assay [1] addresses T1, human CLDN6 (human, UniProt P56747 1-220).
T1 construct: whole, on cells; Expressed on a CLDN-negative parental cell line, HEK293F cells or K562 cells by transfection; Endogenous on OV-90 and OVCAR3 cells; also called claudin 6; Claudin 6
T1 sequence (looked up): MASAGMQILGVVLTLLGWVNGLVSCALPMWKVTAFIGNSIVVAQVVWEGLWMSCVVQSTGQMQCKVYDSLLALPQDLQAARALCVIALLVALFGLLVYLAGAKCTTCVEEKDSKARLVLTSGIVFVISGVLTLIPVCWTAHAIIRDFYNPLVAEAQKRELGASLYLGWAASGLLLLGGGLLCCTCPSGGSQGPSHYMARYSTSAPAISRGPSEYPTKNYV
Description: flow cytometry on a CLDN negative parental cell line transfected with CLDN6, CLDN4, CLDN3 or CLDN9 (FIG. 12A). For orientation: A flow cytometer gives signals particle by particle.

The next assay deals with T2, human CLDN3 (human, UniProt O15551 1-220).
T2 construct: whole, on cells; also called claudin 3
T2 sequence (looked up): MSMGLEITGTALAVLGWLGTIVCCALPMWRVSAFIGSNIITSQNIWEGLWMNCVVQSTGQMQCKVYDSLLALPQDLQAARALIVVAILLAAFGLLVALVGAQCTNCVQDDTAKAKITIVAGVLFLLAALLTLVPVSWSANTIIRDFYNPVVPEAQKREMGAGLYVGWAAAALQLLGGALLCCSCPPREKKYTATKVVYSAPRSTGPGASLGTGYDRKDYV
Kind of assay: binding to cells expressing CLDN3 (FIG. 34 text).

Another assay addresses T3, human CLDN4 (human, UniProt O14493 1-209).
T3 construct: whole, on cells; also called claudin 4
T3 sequence (looked up): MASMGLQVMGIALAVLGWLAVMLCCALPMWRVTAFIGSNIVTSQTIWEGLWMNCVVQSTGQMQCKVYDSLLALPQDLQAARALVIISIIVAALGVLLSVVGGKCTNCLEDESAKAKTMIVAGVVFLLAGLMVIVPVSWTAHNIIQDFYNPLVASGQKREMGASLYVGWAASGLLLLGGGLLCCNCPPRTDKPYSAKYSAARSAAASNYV
Kind of assay: binding to cells expressing CLDN4 (FIG. 34 text).

Assay [2] has as its target T1, human CLDN6. Kind of assay: cell-based or functional assay.
The next assay deals with T4, human CLDN9 (human, UniProt O95484 1-217).
T4 construct: whole, on cells; also called claudin 9
T4 sequence (looked up): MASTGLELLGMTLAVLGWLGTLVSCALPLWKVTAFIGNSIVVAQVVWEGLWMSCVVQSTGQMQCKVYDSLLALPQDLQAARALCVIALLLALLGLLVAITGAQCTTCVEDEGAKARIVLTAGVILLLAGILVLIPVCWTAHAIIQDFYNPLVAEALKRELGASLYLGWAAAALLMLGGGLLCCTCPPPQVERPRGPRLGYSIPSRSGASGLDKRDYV
Kind of assay: binding to cells expressing CLDN9 (FIG. 33B, FIG. 34 text).

Assay [3] has as its target T1, human CLDN6. Kind of assay: flow cytometry on a CLDN negative parental cell line transfected with CLDN6, CLDN4, CLDN3 or CLDN9 (FIG. 12D).
Assay [4] deals with T1, human CLDN6. Kind of assay: flow cytometry on a CLDN negative parental cell line transfected with CLDN6, CLDN4, CLDN3 or CLDN9 (FIG. 12C).

B1: IMC-2-7 tandem scFv antibody (bispecific antibody)
scFv: SYELTQPPSVSVSPGQTARITCSAGSGLYGWYQQKPGQAPVLVIYGTNKRPSGIPERFSGSSSGTTVTLTISGVQAEDEADYYCGSADSSTNAGIFGGGTKLTVLGGGGSGGGGSGGGGSEVQLLESGGGLVQPGGSLRLSCAASGFTFSSYAMNWVRQAPGKGLEWVAGISSSGRYTGYADSVKGRFTISRDNSKNTLYLQMNSLRAEDTAVYYCAKSVGSGVSWSGYVATSLDAWGQGTLVTVSSGGGGSEVQLVESGGGLVQPGGSLRLSCAASGFTFSTYAMNWVRQAPGKGLEWVGRIRSKYNNYATYYADSVKGRFTISRDDSKNTLYLQMNSLRAEDTAVYYCVRHGNFGDSYVSWFAYWGQGTLVTVSSGKPGSGKPGSGKPGSGKPGSQAVVTQEPSLTVSPGGTVTLTCGSSTGAVTTSNYANWVQQKPGKSPRGLIGGTNKRAPGVPARFSGSLLGGKAALTISGAQPEDEADYYCALWYSNHWVFGGGTKLTVL
notes: A single-chain tandem scFv (anti-CLDN6 scFv, then anti-CD3 scFv)
In the case of B1, in the assay with human CLDN6 [1], the binding result is listed as “binds”.

B2: IMC-16-3 scFv-Fab IgG antibody (bispecific antibody)
heavy: EVQLLESGGGLVQPGGSLRLSCAASGFTFSSYAMNWVRQAPGKGLEWVAGISSSGRYTGYADSVKGRFTISRDNSKNTLYLQMNSLRAEDTAVYYCAKSVGSGVSWSGYVATSLDAWGQGTLVTVSSASTKGPSVFPLAPSSKSTSGGTAALGCLVKDYFPEPVTVSWNSGALTSGVHTFPAVLQSSGLYSLSSVVTVPSSSLGTQTYICNVNHKPSNTKVDKKVEPKSCDKTHTCPPCPAPEAAGGPSVFLFPPKPKDTLMISRTPEVTCVVVDVSHEDPEVKFNWYVDGVEVHNAKTKPREEQYNSTYRVVSVLTVLHQDWLNGKEYKCKVSNKALPAPIEKTISKAKGQPREPQVYTLPPSREEMTKNQVSLWCLVKGFYPSDIAVEWESNGQPENNYKTTPPVLDSDGSFFLYSKLTVDKSRWQQGNVFSCSVMHEALHNHYTQKSLSLSPGK
light: SYELTQPPSVSVSPGQTARITCSAGSGLYGWYQQKPGQAPVLVIYGTNKRPSGIPERFSGSSSGTTVTLTISGVQAEDEADYYCGSADSSTNAGIFGGGTKLTVLGQPKAAPSVTLFPPSSEELQANKATLVCLISDFYPGAVTVAWKADSSPVKAGVETTTPSKQSNNKYAASSYLSLTPEQWKSHRSYSCQVTHEGSTVEKTVAPTECS
scFv: EVQLVESGGGLVQPGGSLRLSCAASGFTFSTYAMNWVRQAPGKGLEWVGRIRSKYNNYATYYADSVKGRFTISRDDSKNTLYLQMNSLRAEDTAVYYCVRHGNFGDSYVSWFAYWGQGTLVTVSSGKPGSGKPGSGKPGSGKPGSQAVVTQEPSLTVSPGGTVTLTCGSSTGAVTTSNYANWVQQKPGKSPRGLIGGTNKRAPGVPARFSGSLLGGKAALTISGAQPEDEADYYCALWYSNHWVFGGGTKLTVLASPKSSDKTHTCPPCPAPEAAGGPSVFLFPPKPKDTLMISRTPEVTCVVVDVSHEDPEVKFNWYVDGVEVHNAKTKPREEQYNSTYRVVSVLTVLHQDWLNGKEYKCKVSNKALPAPIEKTISKAKGQPREPQVYTLPPSREEMTKNQVSLSCAVKGFYPSDIAVEWESNGQPENNYKTTPPVLDSDGSFFLVSKLTVDKSRWQQGNVFSCSVMHEALHNHYTQKSLSLSPGK
notes: also called IMC-16-3 scFv-Fab IgG bispecific antibody
With B2, the binding result in the assay with human CLDN3, in the assay with human CLDN4 and with human CLDN9 was “no binding” throughout. The “cytokine activation assay (IL-6, IL-2, TNF-alpha, IL-8) in human PBMC co-cultured with K562 cells” value with human CLDN6 [2] is ~10 fold more potent than RefMAB #3. For the same molecule, the “cytotoxicity assay in OV-90 ovarian cancer cells with human PBMC, two Effector:Target ratios” value with human CLDN6 [2] was ~10 fold more potent than RefMAB #3.

B3: IMC-21-1 IgG-(scFv)2 antibody (bispecific antibody)
heavy: not shown
light: SYELTQPPSVSVSPGQTARITCSAGSGLYGWYQQKPGQAPVLVIYGTNKRPSGIPERFSGSSSGTTVTLTISGVQAEDEADYYCGSADSSTNAGIFGGGTKLTVLGQPKAAPSVTLFPPSSEELQANKATLVCLISDFYPGAVTVAWKADSSPVKAGVETTTPSKQSNNKYAASSYLSLTPEQWKSHRSYSCQVTHEGSTVEKTVAPTECS
notes: also called MC-21-1 antibody
For the molecule B3, in the assay with human CLDN6 [3], the binding result is reported as “binds”.

B4: IMC-16-15 scFv-Fab IgG antibody (bispecific antibody)
heavy: EVQLLESGGGLVQPGGSLRLSCAASGFTFSSYAMNWVRQAPGKGLEWVAGISSSGRYTGYADSVKGRFTISRDNSKNTLYLQMNSLRAEDTAVYYCAKSMGSGVSWSGYVATSIDVWGQGTLVTVSSASTKGPSVFPLAPSSKSTSGGTAALGCLVKDYFPEPVTVSWNSGALTSGVHTFPAVLQSSGLYSLSSVVTVPSSSLGTQTYICNVNHKPSNTKVDKKVEPKSCDKTHTCPPCPAPEAAGGPSVFLFPPKPKDTLMISRTPEVTCVVVDVSHEDPEVKFNWYVDGVEVHNAKTKPREEQYNSTYRVVSVLTVLHQDWLNGKEYKCKVSNKALPAPIEKTISKAKGQPREPQVYTLPPSREEMTKNQVSLWCLVKGFYPSDIAVEWESNGQPENNYKTTPPVLDSDGSFFLYSKLTVDKSRWQQGNVFSCSVMHEALHNHYTQKSLSLSPGK
light: SYELTQPPSVSVSPGQTARITCSAGSGLYGWYQQKPGQAPVLVIYGTNKRPSGIPERFSGSSSGTTVTLTISGVQAEDEADYYCGSADSSTNAGIFGGGTKLTVLGQPKAAPSVTLFPPSSEELQANKATLVCLISDFYPGAVTVAWKADSSPVKAGVETTTPSKQSNNKYAASSYLSLTPEQWKSHRSYSCQVTHEGSTVEKTVAPTECS
scFv: EVQLVESGGGLVQPGGSLRLSCAASGFTFSTYAMNWVRQAPGKGLEWVGRIRSKYNNYATYYADSVKGRFTISRDDSKNTLYLQMNSLRAEDTAVYYCVRHGNFGDSYVSWFAYWGQGTLVTVSSGKPGSGKPGSGKPGSGKPGSQAVVTQEPSLTVSPGGTVTLTCGSSTGAVTTSNYANWVQQKPGKSPRGLIGGTNKRAPGVPARFSGSLLGGKAALTISGAQPEDEADYYCALWYSNHWVFGGGTKLTVLASPKSSDKTHTCPPCPAPEAAGGPSVFLFPPKPKDTLMISRTPEVTCVVVDVSHEDPEVKFNWYVDGVEVHNAKTKPREEQYNSTYRVVSVLTVLHQDWLNGKEYKCKVSNKALPAPIEKTISKAKGQPREPQVYTLPPSREEMTKNQVSLSCAVKGFYPSDIAVEWESNGQPENNYKTTPPVLDSDGSFFLVSKLTVDKSRWQQGNVFSCSVMHEALHNHYTQKSLSLSPGK
For the molecule B4, the binding result with human CLDN6 [4] is listed as “binds”.
